Earlier results as cited in paper PMC3164524.

Biological target: pYAQL peptide
Assay: SPR

SHP-2 N-SH2 (from UniProt Q06124)
Kd: 260 nM
